Measurements from patent US20250145690A1 (US Dept. of Health and Human Services, published 2025).
Where a chain is given by its changes, count along the chain named.

B1: COV77-04 (antibody, V domains shown)
VH: QVRLQESGPGLVKPSETLSVTCTVSGVSISNYYWSWIRQPPGKGLEWIGYISDTGSTNYSPSLQSRVTISVDMSKNQVSLEVTSVTATDTAVYYCARTTTSVPFDYWGKGVLVTVSS
VL: SYELTQPPSVSVSPGQVARITCSGEALPKKYAYWYQHKPGQFPLLVIHKDSERPSGIPERFSGSSSGTVVTLTISGVQAEDEADYFCLSTDGSTTWVFGGGTKLTVL
B2: COV30-80 (antibody, V domains shown)
VH: QVQLVESGGGVVQPGRSLRLSCAASGFTFSSYAMHWVRQAPGKGLEWVAVISYDGNNAFYADSVKGRFTISRDNSKNTVYVQMDSLRAEETAVYYCARAGYNSNWDLGDALDIWGQGTMVTVSS
VL: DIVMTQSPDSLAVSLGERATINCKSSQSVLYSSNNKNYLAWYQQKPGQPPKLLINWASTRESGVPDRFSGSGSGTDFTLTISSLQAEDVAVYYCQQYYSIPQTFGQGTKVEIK
B3: COV57-03 (antibody, V domains shown)
VH: QVHLVESGGGVVQPGRSLRLSCAASGFTFSSFGMHWVRQAPGKGLEWVAVISDDGNNKFYADSVKGRFSISRDNSKNTLYLQMNSLRAEDTAVYYCVRAFRNSNWATGEYFDYWGQGTLVTVSS
VL: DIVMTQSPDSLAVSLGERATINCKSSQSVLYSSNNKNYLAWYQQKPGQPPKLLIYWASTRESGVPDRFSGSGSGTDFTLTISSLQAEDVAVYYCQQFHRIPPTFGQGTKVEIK
B4: COV57-04 (antibody, V domains shown)
VH: B3 VH with H3Q, S31N, K58E, D62G, A88P
VL: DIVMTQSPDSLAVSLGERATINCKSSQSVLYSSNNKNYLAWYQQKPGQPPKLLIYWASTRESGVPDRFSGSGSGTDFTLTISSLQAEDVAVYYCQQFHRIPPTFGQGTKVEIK
B5: COV77-39 (antibody, V domains shown)
VH: RVQLQESGPGLVKPSETLSLTCTVSGGSITDDYWNWIRQPPGKGLEWIGYVHDSGTTNYNPSLKSRVTLSLHTSGNKFSLRLTSVTAADTAMYYCARTTTTFPFDSWGQGTLVIVSS
VL: SYELTQPPSVSVSLGQMARITCSGEALPKKYVYWYQQKPGQFPVLVIYKDRERPSGIPERFSGSSSGTIVTLTISGVQAEDEADYYCLSVDSTANWVFGGGTKLTVL
B6: COV44-79 (antibody, V domains shown)
VH: QVQLVESGGGVVQPGRSLRLSCAASGLTFSGYAMHWVRQAPGKGLEWVAVISRDARNKYYADSVKGRFTISRDNSKKTVYLEMNSLRVEDTAVYYCAILIIPGITEPGSPDALDIWGQGTMVSVSS
VL: DIQMTQSPSSMSASVGDRVTITCRASQDISKWLAWYQQRPGKAPKLLIYAASSLQSGVPSRFSGSGSGTDFTLTISSLQPEDFATYYCQQASSFPWSITFGQGTRLEIR
B7: COV44-62 (antibody, V domains shown)
VH: QMQLMQSGAEVKKPGASVTVSCKASGDTFSDYRIHWVRQAPGQGLEWMGRMNPKSGDTNFAQKFQGRVTMTRDMSINTAYMTLSGLTFDDTALYYCASLLIVGGFDPLDDFEVWGQGTMVTISS
VL: QSALTQPPSASGSPGQSVTISCSGTSSDVGGYNFVSWYQHHPGKAPKILIYEVTKRPSGVPDRFSGSKSGNTASLTVSGLQAEDEADYYCSSYGGTNNLLFGGGTKLTVL
B8: COV78-36 (antibody, V domains shown)
VH: EVQLVQSGAEVKKPGESLRISCKGSGYSFSNSWITWVRQMPGKGLEWVGRIDTRDSRTAYSPSFEGHVFFSADRSSDTVYVQWRSLRASDTAVYYCTTGAGVVIAASYFWGQGTLVTVSS
VL: QSALTQPPSASGSPGQPVTISCTGTSSDVGGYEYVSWYQQLPGKVPTLIIHEVSKRPSGVPDRFSGSKSGNTASLTVSGLQAEDEADYYCSSYSADSSIIFGGGTKLTVL
B9: COV91-27 (antibody, V domains shown)
VH: QVQLVESGGGVVHPGGSLRLSCAASGFTFSDFAMNWVRQAPGEGLQWVAIISYDGRNKHFAASVRGRFTISRDNSKNTMFLQMSSLRAEDTAIYYCATLGGWFEEASPTYWGRGTLVTVSS
VL: EVVLTQSPAIVSLSPGERATLSCRASQSVGSRLAWHQQKPGLAPRVLIYDASNRATGIPARFSGSGSGTDFTLTISSIEPEDSAVYYCQQRGDWPLITFGQGTRLEIK

The binders below were run against SARS-CoV-2 spike N-terminal domain (NTD), recombinant (SARS-CoV-2, UniProt P0DTC2 14-305) (assay: bead flow cytometry, AUC minus CD4).

Row | Binder | binding result
1 | B1 | no binding (tested: 200 µg/mL)
2 | B2 | no binding (tested: 200 µg/mL)
3 | B3 | no binding (tested: 200 µg/mL)
4 | B4 | no binding (tested: 200 µg/mL)
5 | B5 | no binding (tested: 200 µg/mL)
6 | B6 | no binding (tested: 200 µg/mL)
7 | B7 | no binding (tested: 200 µg/mL)
8 | B8 | no binding (tested: 200 µg/mL)
9 | B9 | no binding (tested: 200 µg/mL)

What follows are binders tested against SARS-CoV-2 spike receptor binding domain (RBD), recombinant (SARS-CoV-2, UniProt P0DTC2 319-541) (assay: bead flow cytometry, AUC minus CD4).

Row | Binder | binding result
10 | B1 | no binding (tested: 200 µg/mL)
11 | B2 | no binding (tested: 200 µg/mL)
12 | B3 | no binding (tested: 200 µg/mL)
13 | B4 | no binding (tested: 200 µg/mL)
14 | B5 | no binding (tested: 200 µg/mL)
15 | B8 | no binding (tested: 200 µg/mL)
